Test results: publication PMC2680549 (Nature structural & molecular biology, 2008)

Key:
AUC [1] = biological target: the molecule itself; assay: AUC
[2] = biological target: Hsc70 nucleotide binding domain (human Hsc70 1-381) (human, UniProt P11142 1-381); assay: pull-down
AUC [3] = biological target: the molecule itself; assay: AUC; remark: listed apart in the source

Sequence of Hsc70 nucleotide binding domain (human Hsc70 1-381) (P11142 1-381): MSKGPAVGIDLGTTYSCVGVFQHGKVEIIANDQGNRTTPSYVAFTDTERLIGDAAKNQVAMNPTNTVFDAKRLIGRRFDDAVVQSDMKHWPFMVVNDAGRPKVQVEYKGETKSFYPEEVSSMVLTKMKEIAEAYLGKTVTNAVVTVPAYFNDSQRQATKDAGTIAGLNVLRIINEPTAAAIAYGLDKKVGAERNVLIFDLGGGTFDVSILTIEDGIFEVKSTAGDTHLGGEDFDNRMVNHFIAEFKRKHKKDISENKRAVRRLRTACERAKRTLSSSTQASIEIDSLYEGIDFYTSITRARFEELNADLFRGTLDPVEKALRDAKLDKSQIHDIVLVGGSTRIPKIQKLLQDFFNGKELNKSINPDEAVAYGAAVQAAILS

B1: Mouse Bag2-BNB (murine Bag2 107-189) (domain or fragment, UniProt Q91YN9 107-189, looked up)
chain: EESLKHATRIIDEVVSKFLDDLGNAKSHLMSLYSACSSEVPPGPVDQKFQSIVIGCALEDQKKIKRRLETLLRNIDNSDKAIK
Q: For B1, which Kd (AUC [1]) is on record?
A: 4.5 ± 2 µM

B2: GST-fused full-length human Bag2, wild type (natural protein, UniProt O95816 1-211, looked up)
chain: MAQAKINAKANEGRFCRSSSMADRSSRLLESLDQLELRVEALREAATAVEQEKEILLEMIHSIQNSQDMRQISDGEREELNLTANRLMGRTLTVEVSVETIRNPQQQESLKHATRIIDEVVNKFLDDLGNAKSHLMSLYSACSSEVPHGPVDQKFQSIVIGCALEDQKKIKRRLETLLRNIENSDKAIKLLEHSKGAGSKTLQQNAESRFN
Q: Does B2 bind [2]?
A: binds

B3: Near full-length murine Bag2 (Bag2 21-210) (domain or fragment, mouse, UniProt Q91YN9 21-210, looked up)
chain: MADRSSRLLESLDQLELRVEALRDAATAVEQEKEILLEMIHSIQNSQDMRQISDGEREELNLTANRLMGRTLTVEVSVETIRNPQQEESLKHATRIIDEVVSKFLDDLGNAKSHLMSLYSACSSEVPPGPVDQKFQSIVIGCALEDQKKIKRRLETLLRNIDNSDKAIKLLEHAKGAGSKSLQNTDGKFN
Q: For B3, which “stoichiometry N” value (AUC [3]) is on record?
A: ≥ 4
